Source: IntAct's records for PubMed 35512704

B1: Speckle-type POZ protein (Homo sapiens), O43791 (parent)
chain: MSRVPSPPPPAEMSSGPVAESWCYTQIKVVKFSYMWTINNFSFCREEMGEVIKSSTFSSGANDKLKWCLRVNPKGLDEESKDYLSLYLLLVSCPKSEVRAKFKFSILNAKGEETKAMESQRAYRFVQGKDWGFKKFIRRDFLLDEANGLLPDDKLTLFCEVSVVQDSVNISGQNTMNMVKVPECRLADELGGLWENSRFTDCCLCVAGQEFQAHKAILAARSPVFSAMFEHEMEESKKNRVEINDVEPEVFKEMMCFIYTGKAPNLDKMADDLLAAADKYALERLKVMCEDALCSNLSVENAAEILILADLHSADQLKTQAVDFINYHASDVLETSGWKSMVVSHPHLVAEAYRSLASAQCPFLGPPRKRLKQS
partner: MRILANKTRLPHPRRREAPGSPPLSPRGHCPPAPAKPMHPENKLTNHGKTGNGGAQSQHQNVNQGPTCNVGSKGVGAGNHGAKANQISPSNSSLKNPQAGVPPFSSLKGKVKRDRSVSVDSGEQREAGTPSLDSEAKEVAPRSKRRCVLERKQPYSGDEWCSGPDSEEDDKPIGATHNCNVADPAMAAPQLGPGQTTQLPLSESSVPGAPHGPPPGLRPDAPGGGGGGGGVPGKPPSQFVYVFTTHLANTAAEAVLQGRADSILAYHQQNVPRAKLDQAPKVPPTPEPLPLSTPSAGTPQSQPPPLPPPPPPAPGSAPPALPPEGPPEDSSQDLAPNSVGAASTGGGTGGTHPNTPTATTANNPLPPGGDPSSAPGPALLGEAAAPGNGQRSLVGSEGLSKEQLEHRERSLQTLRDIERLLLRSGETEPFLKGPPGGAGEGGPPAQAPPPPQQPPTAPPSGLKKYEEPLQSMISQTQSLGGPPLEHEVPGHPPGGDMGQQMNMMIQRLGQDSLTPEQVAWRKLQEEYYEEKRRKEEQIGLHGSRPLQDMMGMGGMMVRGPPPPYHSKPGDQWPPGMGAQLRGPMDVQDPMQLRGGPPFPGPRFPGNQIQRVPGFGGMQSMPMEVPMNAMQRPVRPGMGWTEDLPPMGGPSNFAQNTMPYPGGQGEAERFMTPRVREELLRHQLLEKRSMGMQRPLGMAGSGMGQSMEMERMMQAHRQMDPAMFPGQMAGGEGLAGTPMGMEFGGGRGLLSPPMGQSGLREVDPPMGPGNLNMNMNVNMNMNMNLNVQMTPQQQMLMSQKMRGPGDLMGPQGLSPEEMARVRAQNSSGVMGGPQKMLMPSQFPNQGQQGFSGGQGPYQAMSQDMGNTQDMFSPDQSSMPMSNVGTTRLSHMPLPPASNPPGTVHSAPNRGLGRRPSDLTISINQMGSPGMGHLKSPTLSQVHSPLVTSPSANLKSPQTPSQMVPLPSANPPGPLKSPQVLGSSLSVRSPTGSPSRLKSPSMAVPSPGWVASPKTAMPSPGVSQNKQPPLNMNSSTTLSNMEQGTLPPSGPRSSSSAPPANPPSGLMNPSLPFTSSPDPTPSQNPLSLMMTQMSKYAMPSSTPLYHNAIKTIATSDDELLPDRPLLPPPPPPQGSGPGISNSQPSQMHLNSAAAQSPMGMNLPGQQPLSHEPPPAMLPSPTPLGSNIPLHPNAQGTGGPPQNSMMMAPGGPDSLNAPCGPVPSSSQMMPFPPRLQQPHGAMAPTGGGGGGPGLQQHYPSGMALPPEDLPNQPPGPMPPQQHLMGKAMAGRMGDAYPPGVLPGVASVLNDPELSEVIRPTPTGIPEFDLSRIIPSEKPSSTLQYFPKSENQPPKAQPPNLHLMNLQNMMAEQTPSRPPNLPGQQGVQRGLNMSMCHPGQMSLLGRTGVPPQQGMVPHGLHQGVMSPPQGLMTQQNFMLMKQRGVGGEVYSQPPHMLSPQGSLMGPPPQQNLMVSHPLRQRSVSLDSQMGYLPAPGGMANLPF
B2: Speckle-type POZ protein (Homo sapiens), O43791 (parent)
chain: B1 chain
partner: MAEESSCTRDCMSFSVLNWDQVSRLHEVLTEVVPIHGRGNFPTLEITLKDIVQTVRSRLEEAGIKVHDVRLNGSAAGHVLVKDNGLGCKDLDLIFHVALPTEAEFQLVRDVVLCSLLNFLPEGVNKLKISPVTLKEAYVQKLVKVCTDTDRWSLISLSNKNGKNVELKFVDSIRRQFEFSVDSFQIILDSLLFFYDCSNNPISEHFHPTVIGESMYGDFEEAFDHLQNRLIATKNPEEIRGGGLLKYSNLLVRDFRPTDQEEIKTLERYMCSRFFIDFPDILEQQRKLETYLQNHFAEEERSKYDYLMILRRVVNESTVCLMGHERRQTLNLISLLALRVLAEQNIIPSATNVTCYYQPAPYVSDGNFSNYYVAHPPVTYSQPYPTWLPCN
B3: Speckle-type POZ protein (Homo sapiens), O43791 (parent)
chain: B1 chain
partner: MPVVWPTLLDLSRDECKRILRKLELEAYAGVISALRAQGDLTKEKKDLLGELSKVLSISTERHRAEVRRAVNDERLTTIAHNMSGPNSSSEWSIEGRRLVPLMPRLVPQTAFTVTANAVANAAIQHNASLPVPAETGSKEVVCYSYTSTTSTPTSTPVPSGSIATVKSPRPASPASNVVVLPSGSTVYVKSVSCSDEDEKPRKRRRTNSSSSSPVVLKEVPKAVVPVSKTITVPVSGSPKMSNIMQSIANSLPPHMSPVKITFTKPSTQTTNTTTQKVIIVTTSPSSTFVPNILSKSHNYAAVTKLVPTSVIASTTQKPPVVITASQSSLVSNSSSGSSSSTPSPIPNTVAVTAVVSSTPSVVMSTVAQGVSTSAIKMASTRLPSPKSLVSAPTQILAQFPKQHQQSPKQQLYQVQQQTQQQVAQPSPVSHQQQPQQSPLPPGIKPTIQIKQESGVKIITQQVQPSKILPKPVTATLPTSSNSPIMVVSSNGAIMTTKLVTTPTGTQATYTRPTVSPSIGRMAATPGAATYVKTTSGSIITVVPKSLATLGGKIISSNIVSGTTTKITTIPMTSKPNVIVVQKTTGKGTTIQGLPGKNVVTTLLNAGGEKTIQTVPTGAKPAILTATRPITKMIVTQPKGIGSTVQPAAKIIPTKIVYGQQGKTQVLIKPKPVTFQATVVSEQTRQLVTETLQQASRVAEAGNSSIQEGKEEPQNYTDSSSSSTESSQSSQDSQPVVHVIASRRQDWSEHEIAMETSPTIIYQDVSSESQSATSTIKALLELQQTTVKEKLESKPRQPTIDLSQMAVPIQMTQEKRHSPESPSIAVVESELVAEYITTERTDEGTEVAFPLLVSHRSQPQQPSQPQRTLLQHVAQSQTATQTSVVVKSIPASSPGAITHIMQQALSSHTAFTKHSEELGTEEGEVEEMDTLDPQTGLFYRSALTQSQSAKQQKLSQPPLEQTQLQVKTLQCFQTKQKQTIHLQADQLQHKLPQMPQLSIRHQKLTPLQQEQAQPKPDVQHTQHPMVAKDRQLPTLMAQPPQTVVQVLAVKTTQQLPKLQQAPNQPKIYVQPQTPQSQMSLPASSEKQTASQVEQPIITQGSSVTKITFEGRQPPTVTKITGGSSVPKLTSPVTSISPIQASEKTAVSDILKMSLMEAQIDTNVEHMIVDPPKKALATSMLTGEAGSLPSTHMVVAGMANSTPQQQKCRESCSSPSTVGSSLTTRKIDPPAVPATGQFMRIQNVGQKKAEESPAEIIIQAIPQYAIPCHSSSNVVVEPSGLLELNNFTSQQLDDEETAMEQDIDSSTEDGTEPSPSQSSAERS
B4: Speckle-type POZ protein (Homo sapiens), O43791 (parent)
chain: B1 chain
partner: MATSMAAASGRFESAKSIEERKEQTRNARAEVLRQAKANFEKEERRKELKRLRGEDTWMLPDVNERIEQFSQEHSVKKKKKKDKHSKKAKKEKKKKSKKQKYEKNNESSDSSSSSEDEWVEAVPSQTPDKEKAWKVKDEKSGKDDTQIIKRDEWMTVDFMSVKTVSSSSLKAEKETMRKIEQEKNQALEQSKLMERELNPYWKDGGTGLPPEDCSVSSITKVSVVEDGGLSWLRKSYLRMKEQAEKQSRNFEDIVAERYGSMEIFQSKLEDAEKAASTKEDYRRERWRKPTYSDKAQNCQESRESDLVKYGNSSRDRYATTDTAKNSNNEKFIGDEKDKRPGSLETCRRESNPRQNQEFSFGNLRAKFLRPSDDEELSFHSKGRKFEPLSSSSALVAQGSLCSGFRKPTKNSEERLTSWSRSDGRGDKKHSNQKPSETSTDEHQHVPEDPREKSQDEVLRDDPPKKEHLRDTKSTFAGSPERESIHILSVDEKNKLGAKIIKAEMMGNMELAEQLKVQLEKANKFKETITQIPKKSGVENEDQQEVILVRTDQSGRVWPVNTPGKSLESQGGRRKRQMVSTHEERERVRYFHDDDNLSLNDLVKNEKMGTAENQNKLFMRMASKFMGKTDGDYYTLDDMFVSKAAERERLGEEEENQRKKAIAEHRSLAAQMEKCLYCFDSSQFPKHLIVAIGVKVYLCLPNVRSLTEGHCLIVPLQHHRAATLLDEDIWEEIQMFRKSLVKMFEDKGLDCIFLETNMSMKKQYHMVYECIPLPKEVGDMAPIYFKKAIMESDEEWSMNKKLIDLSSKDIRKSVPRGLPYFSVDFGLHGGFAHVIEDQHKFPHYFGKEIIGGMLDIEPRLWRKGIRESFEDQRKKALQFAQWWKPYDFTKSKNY

Variants of: B1
Details: with bcl9l_human BCL9L

effect of a mutation on the interaction	Variant
with no effect	F133V

Variants of: B1
Details: with bcl9l_human BCL9L
Remark: another data set of the same source

effect of a mutation on the interaction	Variant
with no effect	F133L

Variants of: B1
Details: with bcl9l_human BCL9L
Remark: another data set of the same source

effect of a mutation on the interaction	Variant
with no effect	F102C

Variants of: B2
Details: with tet5c_human TENT5C

effect of a mutation on the interaction	Variant
with no effect	F133V

Variants of: B2
Details: with tet5c_human TENT5C
Remark: another data set of the same source

effect of a mutation on the interaction	Variant
with no effect	F133L

Variants of: B2
Details: with tet5c_human TENT5C
Remark: another data set of the same source

effect of a mutation on the interaction	Variant
with no effect	Y87C

Variants of: B2
Details: with tet5c_human TENT5C
Remark: another data set of the same source

effect of a mutation on the interaction	Variant
with no effect	F102C

Variants of: B3
Details: with emsy_human EMSY

effect of a mutation on the interaction	Variant
with no effect	F102C

Variants of: B3
Details: with emsy_human EMSY
Remark: another data set of the same source

effect of a mutation on the interaction	Variant
with no effect	F133V

Variants of: B3
Details: with emsy_human EMSY
Remark: another data set of the same source

effect of a mutation on the interaction	Variant
with no effect	F133L

Variants of: B3
Details: with emsy_human EMSY
Remark: another data set of the same source

effect of a mutation on the interaction	Variant
with no effect	Y87C

Variants of: B4
Details: with CWF19L2, Q2TBE0

effect of a mutation on the interaction	Variant
with no effect	F133V
